Measurements taken from the supplement of paper PMC10567573.

B1: SEC22B (parent)
chain: FPKKLAFAYLEDLHSEFDEQHGKK

Variants of: B1
Assay: protein stability index of a GFP-peptide fusion (GPS, HEK-293T) (PSI 1-6); higher = more stable
Conditions: c terminus: a fixed tail appended
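Further: lentivirally expressed fusions sorted by FACS into six bins by GFP to DsRed ratio, PSI derived from sequencing read proportions per bin multiplied by bin number.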

Protein stability index, by site and new letter:
K23: F 2.07 | M 2.25 | W 2.38 | R 2.34 | Q 2.81 | V 2.67 | T 1.81 | L 2.53 | P 2.33 | D 3.12
D18: H 2.38 | A 2.38 | V 2.45 | W 2.17 | C 1.9 | M 2.22 | P 2.47 | L 2.22 | R 2.03
L13: D 2.54 | S 2.56 | I 2.62 | P 2.61 | E 3.23 | V 2.55 | C 2.83 | R 2.79
P2: G 3.38 | K 2.55 | N 3.44 | Q 2.88 | F 2.62 | A 1.84 | W 1.95
A6: I 2.35 | P 3.06 | C 2.29 | E 3.96 | F 2.4 | W 2.74 | S 2.69 | M 2.3 | V 2.45 | G 2.45
H21: M 2.69 | W 2.34 | N 3.07 | D 3.02 | A 2.93 | P 2.41 | T 2.69 | V 2.28
D12: H 2.25 | L 1.77 | Y 1.89 | Q 2.22 | T 2.39 | F 1.97 | P 2.33 | N 2.97
F1: N 4.88 | Y 2.53 | C 4.01 | T 4.37 | W 3.51 | M 3.97 | K 4.8
S15: A 2.15 | C 2.25 | P 2.42 | Y 2.08 | I 2.25 | G 2.25
Y9: T 2.5 | C 2.18 | V 2.2 | I 1.8 | E 3.04 | H 3.1 | W 1.67
F17: A 2.68 | L 2.54 | V 2.67 | P 2.75 | N 2.76 | C 2.87
A8: L 1.88 | C 2.09 | S 3.06 | E 3.27 | G 3.04 | K 2.91 | P 2.84
H14: D 2.53 | W 2.06 | S 2.75 | Q 2.85 | L 2.31 | R 2.55 | M 2.23 | E 2.13
L10: S 3.15 | M 2.43 | A 2.47 | H 2.75 | R 2.75 | C 2.21
K3: G 2.29 | H 1.17 | R 2.42 | M 2.2 | S 2.01 | P 3.08
E11: H 1.86 | C 1.88 | F 1.97 | G 2.08 | D 2.37 | L 2.35 | M 2.17 | K 2.63
G22: E 2.56 | S 2.6 | V 2.12 | I 2.25
E16: F 1.53 | L 2.29 | P 2.25 | D 2.34
L5: Y 2.52 | G 2.41 | E 3.56 | N 2.65 | M 1.84 | H 1.95 | S 2.64 | T 3.02
F7: V 2.67 | K 3.8 | R 3.28 | H 3.42 | W 1.95
K4: Q 2.52 | D 3.31 | N 2.27 | A 1.81 | S 1.55 | G 2.72
Q20: G 2.32 | T 2.44 | A 2.23 | K 2.64 | I 2.03 | Y 2.47 | W 2.46
K24: L 2.12 | E 2.83 | C 2.23 | H 2.59 | R 2.9 | Y 2.49
E19: R 1.63 | L 2.6 | V 2.32 | A 2.47 | F 2.51 | W 2.12
